Experimental data from patent US20180155413A1 (AstraZeneca / MedImmune, published 2018).
Changes are numbered by the printed parent chain.

B1: FY1/39 BiS4 100/44 (bispecific antibody)
light: DIQMTQSPSSLSASVGDRVTITCRTSQSLSSYLHWYQQKPGKAPKLLIYAASSLQSGVPSRFSGSGSGTDFTLTISSLQPEDFATYYCQQSRTFGQGTKVEIKRTVAAPSVFIFPPSDEQLKSGTASVVCLLNNFYPREAKVQWKVDNALQSGNSQESVTEQDSKDSTYSLSSTLTLSKADYEKHKVYACEVTHQGLSSPVTKSFNRGEC
heavy: not shown
B2: FY1/39 BiS4 43/105 (bispecific antibody)
light: B1 light
heavy: not shown
B3: GL20/39FTL BiS4 43/105 (bispecific antibody)
light: B1 light with L33T, L54R, Q55G
heavy: not shown
B4: GL20/39FTL BiS4 100/44 (bispecific antibody)
light: DIQMTQSPSSLSASVGDRVTITCRTSQSLSSYTHWYQQKPGKAPKLLIYAASSRGSGVPSRFSGSGSGTDFTLTISSLQPEDFATYYCQQSRTFGQGTKVEIK
heavy (part 1 of 2): QVQLQQSGPGLVKPSQTLSLTCAISGDSVSSYNAVWNWIRQSPSRGLEWLGRTYYRSGWYNDYAESVKSRITINPDTSKNQFSLQLNSVTPEDTAVYYCARSGHITVFGVNVDAFDMWGQGTMVTVSS
heavy (part 2 of 2): DIQMTQSPSSVSASVGDRVTITCRASQDISTWLAWYQQKPGKAPKLLIYAASSLQSGVPSRFSGSGSGTDFTLTISSLQPEDFATYYCQQANSFPPTFGCGTKLEIKGGGGSGGGGSGGGGSGGGGSEVQLVESGGGLVKPGGSLRLSCAASGFTFLNAWMSWVRQAPGKCLEWVGRIKSNTDGGTTDYAAPVKGRFTISRDDSKNTLYLQMSSLKTEDTAVYYCTTDGPYSDDFRSGYAARYRYFGMDVWGQGTTVTVSS
B5: FY1 IgG (antibody, V domains shown)
VH: B4 heavy (part 1 of 2) with Q6E, Y32N, G58K, I73V, Q85H, N87K, Y97F, A100V
VL: B4 light with T33L, R54L, G55Q
B6: FBD94 IgG (antibody, V domains shown)
VH: EVQLVESGGGLVQPGRSLRLSCAVSGFIFEDYAINWVRQAPGKGLEWVSIISWDSGRIGYADSVRGRFTISRDNAKNSSFLQMNSLRPEDTAVYYCVKDMLAYYYDGSGIRYNLYGMDVWGQGTTVTVSS
VL: EIVLTQSPATLSLSPGERATLSCRASRSITTFLAWYQQKPGQAPRLLIYDASNRATGVPARFSGSGSGTDFTLTINSLEPDDFAIYYCQQRDHWPPIFGQGTRLEIK
B7: FY1/94 BiS2 100/44 (bispecific antibody)
light: B1 light
heavy: not shown
B8: FY1/94 BiS4 100/44 (bispecific antibody)
light: B1 light
heavy: not shown
B9: FY1/39 BiS1 100/44 (bispecific antibody)
light: DIQMTQSPSSVSASVGDRVTITCRASQDISTWLAWYQQKPGKAPKLLIYAASSLQSGVPSRFSGSGSGTDFTLTISSLQPEDFATYFCQQANSFPPTFGCGTKLEIKGGGGSGGGGSGGGGSGGGGSEVQLVVSGGGLVKPGGSLRLSCAASGLSFLNAWMSWVRQAPGKCLEWVGRIKSNTDGGTTDYAAPVKGRFSISRDDSKNMLFLHMSSLRTEDTAVYYCATDGPYSDDFRSGYAARYRYFGMDVWGQGTTVTVSSGGGGSGGGGSDIQMTQSPSSLSASVGDRVTITCRTSQSLSSYLHWYQQKPGKAPKLLIYAASSLQSGVPSRFSGSGSGTDFTLTISSLQPEDFATYYCQQSRTFGQGTKVEIKRTVAAPSVFIFPPSDEQLKSGTASVVCLLNNFYPREAKVQWKVDNALQSGNSQESVTEQDSKDSTYSLSSTLTLSKADYEKHKVYACEVTHQGLSSPVTKSFNRGEC
heavy: not shown
B10: FY1/39 BiS2 100/44 (bispecific antibody)
light: B1 light
heavy: not shown

target: HA of B/Florida/4/2006 (yamagata) (influenza B virus); assay: cell-based or functional assay

Point of comparison: B2, “Neutralization (IC50)” value 1.6 nM. Against it:
- B1 — 2.2-fold higher, 3.6 nM
- B3 — 2.6-fold higher, 4.2 nM
- B4 — 4.6-fold higher, 7.3 nM
- B5 — higher, > 1000 nM
- B6 — 16-fold lower, 0.1 nM
- B7 — 2.7-fold lower, 0.6 nM
- B8 — within 1.5-fold, 1.8 nM
- B9 — within 1.5-fold, 1.1 nM
- B10 — within 1.5-fold, 1.7 nM

target: HA of A/Beijing/262/95 (H1N1) (influenza A virus); assay: cell-based or functional assay

Point of comparison: B2, “Neutralization (IC50)” value 10.9 nM. Against it:
- B1 — 1.9-fold higher, 20.2 nM
- B3 — within 1.5-fold, 11.8 nM
- B4 — 1.5-fold higher, 16.4 nM
- B5 — 1.9-fold higher, 21 nM
- B6 — higher, > 1000 nM
- B7 — 3.9-fold higher, 42 nM
- B8 — within 1.5-fold, 13.1 nM
- B9 — 5.7-fold higher, 62.2 nM
- B10 — 5.6-fold higher, 61.3 nM

target: HA of A/Hong Kong/8/68 (H3N2) (influenza A virus); assay: cell-based or functional assay

Point of comparison: B4, “Neutralization (IC50)” value 10.8 nM. Against it:
- B1 — within 1.5-fold, 10.6 nM
- B2 — 2.7-fold lower, 4 nM
- B3 — 1.7-fold lower, 6.3 nM
- B5 — within 1.5-fold, 10.6 nM
- B6 — higher, > 1000 nM
- B7 — 1.6-fold higher, 17.2 nM
- B8 — within 1.5-fold, 9.1 nM
- B9 — 2.9-fold higher, 31.4 nM
- B10 — within 1.5-fold, 10.2 nM

target: HA of B/Hong Kong/330/2001 (victoria) (influenza B virus); assay: cell-based or functional assay

Point of comparison: B7, “Neutralization (IC50)” value 2.1 nM. Against it:
- B1 — 33-fold higher, 69.3 nM
- B2 — 9.1-fold higher, 19.1 nM
- B3 — 78-fold higher, 164 nM
- B4 — 50-fold higher, 106 nM
- B5 — higher, > 1000 nM
- B6 — 21-fold lower, 0.1 nM
- B8 — 1.9-fold higher, 4 nM
- B9 — 2.5-fold higher, 5.3 nM
- B10 — 3.3-fold higher, 7 nM

target: HA of A/Victoria/3/75 (H3N2) (influenza A virus); assay: cell-based or functional assay

Point of comparison: B3, “Neutralization (IC50)” value 14.9 nM. Against it:
- B1 — 1.8-fold higher, 26.4 nM
- B2 — 2.3-fold lower, 6.5 nM
- B4 — within 1.5-fold, 13.3 nM
- B5 — within 1.5-fold, 12 nM
- B6 — higher, > 1000 nM
- B7 — within 1.5-fold, 15.8 nM
- B8 — 2.1-fold lower, 7.2 nM
- B9 — 23-fold higher, 337 nM
- B10 — higher, > 1000 nM

target: HA of ca A/Panama/2007/99 (H3N2) (influenza A virus); assay: cell-based or functional assay

Point of comparison: B2, “Neutralization (IC50)” value 52.7 nM. Against it:
- B1 — 2.9-fold higher, 152 nM
- B3 — within 1.5-fold, 35.5 nM
- B4 — 1.5-fold lower, 34.1 nM
- B5 — 2-fold higher, 104 nM
- B6 — higher, > 1000 nM
- B7 — 9.2-fold higher, 484 nM
- B8 — within 1.5-fold, 38.2 nM
- B9 — higher, > 1000 nM
- B10 — higher, > 1000 nM

target: HA of B/Ohio/1/2005 (victoria) (influenza B virus); assay: cell-based or functional assay

Point of comparison: B1, “Neutralization (IC50)” value 5.6 nM. Against it:
- B2 — within 1.5-fold, 5.4 nM
- B3 — 3.1-fold higher, 17.5 nM
- B4 — 3.7-fold higher, 20.9 nM
- B5 — higher, > 1000 nM
- B7 — 4.3-fold lower, 1.3 nM
- B8 — 1.9-fold lower, 3 nM
- B9 — 2.2-fold lower, 2.6 nM
- B10 — 2-fold lower, 2.8 nM

target: HA of B/Sichuan/379/99 (yamagata) (influenza B virus); assay: cell-based or functional assay

Point of comparison: B4, “Neutralization (IC50)” value 9.8 nM. Against it:
- B1 — within 1.5-fold, 8.2 nM
- B2 — 2.8-fold lower, 3.5 nM
- B3 — within 1.5-fold, 8.7 nM
- B5 — higher, > 1000 nM
- B6 — 49-fold lower, 0.2 nM
- B7 — 5.8-fold lower, 1.7 nM
- B8 — 1.9-fold lower, 5.2 nM
- B9 — 6.5-fold lower, 1.5 nM
- B10 — 4.7-fold lower, 2.1 nM

target: HA of A/Solomon Island/3/2006 (H1N1) (influenza A virus); assay: cell-based or functional assay

Point of comparison: B9, “Neutralization (IC50)” value 14.7 nM. Against it:
- B1 — 3.8-fold lower, 3.9 nM
- B2 — 5.7-fold lower, 2.6 nM
- B3 — 3.9-fold lower, 3.8 nM
- B4 — 3.3-fold lower, 4.4 nM
- B5 — 4.7-fold lower, 3.1 nM
- B6 — higher, > 1000 nM
- B7 — 3.6-fold lower, 4.1 nM
- B8 — 5.9-fold lower, 2.5 nM
- B10 — within 1.5-fold, 9.9 nM

target: HA of A/Wilson Smith N/33 (H1N1) (influenza A virus, UniProt P03454 18-565); assay: cell-based or functional assay
Sequence (P03454 18-565 limits assumed): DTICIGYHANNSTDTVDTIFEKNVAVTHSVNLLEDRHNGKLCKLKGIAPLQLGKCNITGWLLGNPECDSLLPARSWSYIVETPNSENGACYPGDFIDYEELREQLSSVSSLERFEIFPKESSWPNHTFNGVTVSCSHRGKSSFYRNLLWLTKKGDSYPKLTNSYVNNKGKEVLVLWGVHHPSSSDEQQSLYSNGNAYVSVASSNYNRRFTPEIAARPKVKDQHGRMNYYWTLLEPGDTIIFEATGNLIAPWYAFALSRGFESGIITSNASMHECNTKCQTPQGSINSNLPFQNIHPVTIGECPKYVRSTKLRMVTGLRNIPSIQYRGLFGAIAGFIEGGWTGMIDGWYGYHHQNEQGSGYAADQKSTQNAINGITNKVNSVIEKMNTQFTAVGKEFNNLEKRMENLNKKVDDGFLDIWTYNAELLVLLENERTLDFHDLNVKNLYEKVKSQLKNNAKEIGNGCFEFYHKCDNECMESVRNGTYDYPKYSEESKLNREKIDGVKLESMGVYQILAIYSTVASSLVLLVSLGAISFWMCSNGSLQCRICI

Point of comparison: B3, “Neutralization (IC50)” value 9.6 nM. Against it:
- B1 — within 1.5-fold, 10.6 nM
- B2 — 2.2-fold lower, 4.3 nM
- B4 — within 1.5-fold, 13.7 nM
- B5 — within 1.5-fold, 8.8 nM
- B6 — higher, > 1000 nM
- B7 — 2.1-fold higher, 19.9 nM
- B8 — within 1.5-fold, 7.3 nM
- B9 — 2.9-fold higher, 28.2 nM
- B10 — 1.8-fold higher, 17.7 nM

target: HA of A/California/07/2009 (H1N1) (influenza A virus); assay: cell-based or functional assay

Point of comparison: B5, “Neutralization (IC50)” value 10.4 nM. Against it:
- B1 — within 1.5-fold, 8.2 nM
- B2 — within 1.5-fold, 7.1 nM
- B3 — 2-fold higher, 20.8 nM
- B4 — 2.4-fold higher, 25.4 nM
- B6 — higher, > 1000 nM
- B7 — 2.2-fold higher, 23.1 nM
- B8 — 1.7-fold lower, 6.2 nM
- B9 — 3.1-fold higher, 32.5 nM
- B10 — 1.8-fold higher, 18.7 nM

target: HA of B/Malaysia/2506/2004 (victoria) (influenza B virus); assay: cell-based or functional assay

Point of comparison: B7, “Neutralization (IC50)” value 0.8 nM. Against it:
- B1 — 34-fold higher, 27.6 nM
- B2 — 16-fold higher, 12.6 nM
- B3 — 20-fold higher, 16.2 nM
- B4 — 53-fold higher, 42.8 nM
- B5 — higher, > 1000 nM
- B6 — 8-fold lower, 0.1 nM
- B8 — 2.2-fold higher, 1.8 nM
- B9 — 5.1-fold higher, 4.1 nM
- B10 — 7-fold higher, 5.6 nM

target: HA of A/Shan dong/9/93 (H3N2) (influenza A virus); assay: cell-based or functional assay

Point of comparison: B3, “Neutralization (IC50)” value 22.2 nM. Against it:
- B1 — 1.7-fold lower, 12.8 nM
- B2 — within 1.5-fold, 20.4 nM
- B4 — within 1.5-fold, 21.9 nM
- B5 — 1.6-fold higher, 34.6 nM
- B6 — higher, > 1000 nM
- B7 — 9.4-fold higher, 208 nM
- B8 — 1.7-fold higher, 37.9 nM
- B9 — higher, > 1000 nM
- B10 — 3.2-fold higher, 72.1 nM

target: HA of B/Yamanashi/166/98 (yamagata) (influenza B virus); assay: cell-based or functional assay

Point of comparison: B10, “Neutralization (IC50)” value 0.4 nM. Against it:
- B1 — 2.2-fold higher, 0.9 nM
- B2 — within 1.5-fold, 0.6 nM
- B3 — 2.8-fold higher, 1.1 nM
- B4 — 3.5-fold higher, 1.4 nM
- B5 — higher, > 1000 nM
- B6 — 4-fold lower, 0.1 nM
- B7 — within 1.5-fold, 0.5 nM
- B8 — 5.7-fold higher, 2.3 nM
- B9 — 4-fold lower, 0.1 nM

target: HA of ca B/Beijing/243/97 (victoria) (influenza B virus); assay: cell-based or functional assay

Point of comparison: B9, “Neutralization (IC50)” value 3.6 nM. Against it:
- B1 — 1.6-fold higher, 5.8 nM
- B2 — within 1.5-fold, 2.6 nM
- B3 — 6.5-fold higher, 23.5 nM
- B4 — 27-fold higher, 96.2 nM
- B5 — higher, > 1000 nM
- B6 — 36-fold lower, 0.1 nM
- B7 — 3.3-fold lower, 1.1 nM
- B8 — 2-fold lower, 1.8 nM
- B10 — 1.7-fold higher, 6.1 nM
